Results on three molecules are retold here after patent CN110790839A (JIANGSU HENGRUI MEDICINE CO; SHANGHAI HENGRUI …, dated 2020).

Positions count from the first letter of the chain named.

The target in the experiment is T1, 人PD-1抗原(Cat.#10377H08H，Sino Biological) (human, UniProt Q15116 25-167).
T1 construct: Bought reagent, used as the analyte in Biacore; also called human PD-1; PD-1-His
The experiment can be described thus: SPR, Biacore T200; IgG captured on Protein A chip, human PD-1 as analyte, 1:1 Langmuir fit. (SPR reads the build-up and loss of mass on a sensor chip optically.)

T1 sequence (Q15116 25-167 limits assumed): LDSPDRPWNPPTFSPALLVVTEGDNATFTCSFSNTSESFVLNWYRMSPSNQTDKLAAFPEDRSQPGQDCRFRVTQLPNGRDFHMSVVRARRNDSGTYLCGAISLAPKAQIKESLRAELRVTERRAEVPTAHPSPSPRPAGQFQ

B1: Ab05 (antibody, human IgG4 S228P, kappa, F234A L235A, V domains shown)
VH: EVQLVESGGGLVQPGGSLRLSCAASGFTFSSYMMSWVRQAPGKGLEWVATISGGGANTYFADSVKGRFTISRDNAKNSLYLQMNSLRAEDTAVYYCARTQIGFTNWGQGTTVTVSS
VL: DIQMTQSPSSLSASVGDRVTITCLASQTIGTWLTWYQQKPGKAPKLLIYTATSLADGVPSRFSGSGSGTDFTLTISSLQPEDFATYYCQQAYSIPWTFGGGTKVEIKR
notes: also called 抗PD-1抗体Ab05
B1 registered a Kd of 2.8 nM.

B2: Ab01 (antibody, human IgG4 S228P, kappa, F234A L235A, V domains shown)
VH: B1 VH
VL: B1 VL with R18I, A91V
notes: also called 抗PD-1抗体Ab01
Molecule B2 had a Kd of 2.56 nM.

B3: H005-1 (antibody, human IgG4 S228P, kappa, F234A L235A, V domains shown)
VH: B1 VH with F60Y, A61P, T99Q, Q100L, I101Y, G102Y, T104D, N105Y
VL: B1 VL with A91V
notes: Parent antibody from WO2015085847; also called 亲本抗体H005-1; H005-1抗体
Regarding B3, the affinity, expressed as Kd, was 14.6 nM.

One may read the Kd as the equilibrium constant for the complex coming apart. High values mean lower affinity, low ones higher affinity.
